From patent US20240309109A1

Molecular target: human CD38 on cells (human) (UniProt P28907)
Test: FACS Scatchard, IgG1 on Raji cells

Kd: 8.28 nM
Substance: Chimeric OKT10 (antibody)
